Source: patent US20220313607A1

Columns and labels:
[1] = biological target: Recombinant TTR variant TTR_S52P; experiment: SPR (ProteOn), Amyposomes flowed over immobilised aggregates; concentration as exposed PA; TTR aggregates
[2] = biological target: Human Beta-Amyloid (1-40) (human); experiment: SPR (ProteOn), Amyposomes flowed over immobilised fibrils; concentration as exposed PA; Aβ1-40 fibrils
[3] = biological target: Truncated amyloidogenic form of Serum Amyloid A, SAA(1-76) (Homo sapiens (Human)) (UniProt P0DJI8); experiment: cell-based or functional assay
[4] = biological target: Recombinant β2-microglobulin variant β2m_D76N (Pongo pygmaeus (Bornean orangutan)) (UniProt P16213); experiment: cell-based or functional assay
[5] = biological target: Recombinant TTR variant TTR_S52P; experiment: cell-based or functional assay
[6] = biological target: Recombinant β2-microglobulin variant β2m_ΔN6 (Pongo pygmaeus (Bornean orangutan)) (UniProt P16213); experiment: cell-based or functional assay
[7] = biological target: Human Beta-Amyloid (1-40) (human); experiment: cell-based or functional assay

Sequence of Human Beta-Amyloid (1-40) (human) (peptide, as listed by the source): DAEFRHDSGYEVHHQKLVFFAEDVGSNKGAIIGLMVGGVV
Sequence of UniProt P0DJI8 (P0DJI8 other isoform, or with tags, fused parts or gaps limits assumed): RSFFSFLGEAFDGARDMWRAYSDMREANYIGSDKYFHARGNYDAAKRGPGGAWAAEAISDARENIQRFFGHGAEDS

Kd [1]: 14.2 µM | Kd [2]: 0.12 µM | ThT fluorescence, residual aggregates after 72 h, protein:Amyposomes 1:50 [3]: 30% | ThT fluorescence, final aggregation extent with respect to protein alone, D76N:Amyposomes 1:50 [4]: 36% | ThT fluorescence, residual aggregates after 3 days, protein:Amyposomes 1:30 and 1:50 [4]: 15% | ThT fluorescence, aggregation with respect to protein alone, TTR:Amyposomes 1:50 [5]: 40% | ThT fluorescence, residual aggregates after 5 h, TTR:Amyposomes 1:50 [5]: 5% | ThT fluorescence, aggregation extent with respect to protein alone, protein:Amyposomes 1:50 [6]: 20% | ThT fluorescence, residual aggregates, protein:Amyposomes 1:50 [6]: 50% | ThT fluorescence, residual aggregates after 24 h, peptide:Amyposomes 1:50 [7]: 40% | ThT fluorescence, residual aggregates after 5 days, peptide:Amyposomes 1:50 [7]: 10%
Substance: Amyposomes (liposomes composed of sphingomyelin/cholesterol, functionalized with phosphatidic acid and with mApoE peptide covalently linked to the outer surface)
